From US6461867 come the findings set out here.

This assay addresses VSV-7 peptide (Vesicular stomatitis virus).

B1: soluble H-2K^b (K^bsol), empty heterodimer of truncated K^b heavy chain and murine β-2 microglobulin (other)
alpha: GPHSLRYFVTAVSRPGLGEPRYMEVGYVDDTEFVRFDSDAENPRYEPRARWMEQEGPEYWERETQKAKGNEQSFRVDLRTLLGYYNQSKGGSHTIQVISGCEVGSDGRLLRGYQQYAYDGCDYIALNEDLKTWTAADMAALITKHKWEQAGEAERLRAYLEGTCVEWLRRYLKNGNATLLRTDSPKAHVTHHSRPEDKVTLRCWALGFYPADITLTWQLNGEELIQDMELVETRPAGDGTFQKWASVVVPLGKEQYYTCHVYHQGLPEPLTLRW
beta: IQKTPQIQVYSRHPPENGKPNILNCYVTQFHPPHIEIQMLKNGKKIPKVEMSDMSFSKDWSFYILAHTEFTPTETDTYACRVKHASMAEPKTVYWDRDM
The molecule B1 gave a Kd of 53 nM. That is a double-digit nanomolar value.

As usually defined, the Kd is the free concentration of one partner at which half of the binding sites on the other are occupied at equilibrium, for simple one-to-one binding.
